Assay [1] concerns the target TAMRA-labeled UBXN1 UBA(ext1-52) domain (UniProt Q04323). In words: MST; TAMRA-UBA peptide in FP binding buffer, K6 diUb 1.53 to 50 μM, 30 min incubation, hydrophobic capillaries, Monolith NT.115, 30% LED and 40% IR-laser power.
For assay [2] the target is unchanged. Put plainly: fluorescence polarisation; 5 nM TAMRA-labeled UBA peptide fixed, diubiquitin 0.78 to 25 μM in six steps, triplicate; overnight incubation at 4°C, read at room temperature; 20 mM Tris pH 7.6, 150 mM NaCl, 0.5 mg/ml BGG, 1% TX-100; one site binding (hyperbola) fit. (In general: Fluorescence polarisation rises when a labelled molecule tumbles more slowly, as on binding a larger partner.)

Consider one substance from PMC6987245.

As a reminder, the Kd is the constant that tells how readily two partners part at equilibrium. A low value points to a tighter complex.

UniProt Q04323, sequence (Q04323 1-52): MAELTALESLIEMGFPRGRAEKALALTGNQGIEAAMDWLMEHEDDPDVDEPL

For “K6-linked diubiquitin (native, unlabeled) (from UniProt P0CG48 1-76; P0CG48 1-76)”, the dissociation constant (Kd) in assay [1] is 1050 nM; in assay [2], 1430 nM.
